Measurements from doi:10.1101/388868.

Biological target: C. elegans UNC-13 long isoform residues 1-258 bearing the K49E mutation (C. elegans)
Experiment: ITC

Kd: 1.29 µM
B1: C. elegans UNC-10 residues 62-121 WT (domain or fragment)
chain: KLVGTQDDAICQICQKTKFADGIGHKCFYCQLRSCARCGGRAQSKNKAIWACSLCQKRQQ
